The values below come from article PMC3907554, “Crystal Structure of an (R)-Selective ω-Transaminase from Aspergillus terreus” (PLoS ONE, 2014).

The series concerns the molecule itself. Kind of series: crystal structure; X-ray, 1.63 Å, space group C222(1); crystals from Morpheus condition H02 (10% w/v PEG 8000, 20% v/v ethylene glycol, amino acid mix, 0.1 M MES/imidazole pH 6.5), 18°C; two chains in the asymmetric unit.

B1: (R)-selective ω-transaminase from Aspergillus terreus (enzyme, UniProt Q0C8G1 1-325, looked up)
chain: MASMDKVFAGYAARQAILESTETTNPFAKGIAWVEGELVPLAEARIPLLDQGFMHSDLTYDVPSVWDGRFFRLDDHITRLEASCTKLRLRLPLPRDQVKQILVEMVAKSGIRDAFVELIVTRGLKGVRGTRPEDIVNNLYMFVQPYVWVMEPDMQRVGGSAVVARTVRRVPPGAIDPTVKNLQWGDLVRGMFEAADRGATYPFLTDGDAHLTEGSGFNIVLVKDGVLYTPDRGVLQGVTRKSVINAAEAFGIEVRVEFVPVELAYRCDEIFMCTTAGGIMPITTLDGMPVNGGQIGPITKKIWDGYWAMHYDAAYSFEIDYNERN
modifications: pyridoxal 5'-phosphate (PLP) covalently bound to Lys180 (internal aldimine), present in part; the other state is free Lys180 with a PLP-amino acid adduct (ligand code PGD)
notes: ω-(R)-transaminase from Aspergillus terreus, gene codon-optimized for E. coli; Cloned through NcoI and XhoI into pET28a(+); also called AT-ωTA; (R)-ω-transaminase; source: E. coli BL21-Gold(DE3), pET28a(+), purified (Ni Sepharose, SEC on Superdex 200); not shown: His-Tag, C-terminal, kept
B1: the “stoichiometry N” value came to 2.

As a reminder, the stoichiometry N is the number of molecules, sites or subunits per partner or assembly.
